Values of other authors in publication PMC8330535.

Molecular target: ARNT PAS-B (Homo sapiens) (UniProt P27540)
Settings: cited from earlier work

Chain of HIF-1α PAS-B (Q16665 238-349): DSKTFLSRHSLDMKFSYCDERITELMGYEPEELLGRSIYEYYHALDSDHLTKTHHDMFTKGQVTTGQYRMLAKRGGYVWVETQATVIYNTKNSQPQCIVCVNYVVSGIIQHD
Chain of ARNT PAS-B (Homo sapiens) (P27540 356-470): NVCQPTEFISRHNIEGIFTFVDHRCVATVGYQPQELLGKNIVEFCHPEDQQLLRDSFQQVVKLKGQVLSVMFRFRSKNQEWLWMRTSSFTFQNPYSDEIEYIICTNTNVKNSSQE

HIF-1α PAS-B (from UniProt Q16665)
Kd: 125 nM
